The record followed here is patent US20100297606A1 (KAGOSHIMA UNIVERSITY, published 2010).

As a reminder, the Kd is the concentration at which binding is half-saturated. A high value points to a looser complex. One may read the koff as the rate constant with which the complex falls apart. One may read the kon as a measure of how fast the partners come together.

Positions of bridges follow the written chain, without caps; N, C: chain ends. No end group written: not given here. *: point of attachment. Biotin = O=C1N[C@H]2[C@H](CS[C@H]2CCCCC(=O)*)N1

The target in test [1] is T1, human serum albumin (human, UniProt P02768 25-609).
T1 construct: Control protein; also called HSA
Description: ELISA on coated protein; biotinylated peptide premixed 4:1 with SA-AP; absorbance. How it is done:
(§1) The binding activity of the thus obtained biotinylated synthetic peptides to human IgG was assayed by an ELISA assay. […] Specifically, wells coated with human IgG (100 ng/50 μl/well) were blocked by the addition of 0.5% BSA. A biotinylated synthetic peptide and alkaline phosphatase-labeled streptavidin (SA-AP) were mixed in advance at a molar ratio of 4:1 and then the mixture was added to the well, followed by 1 hour of reaction. Para-nitrophenyl phosphate (Wako) was used for color development. Detection was carried out by measuring absorbance at 405 nm. As a positive control of human IgG, the Fc fragment of hIgG was used. As other control proteins, human IgA and IgE, mouse IgG, IgA, and IgE, hTF, fetal bovine serum (FBS), HSA, BSA, and gelatin were used.

Test [2] deals with T2, human transferrin (human, UniProt P02787 20-698).
T2 construct: Control protein; also called hTF; ThF
The description is as above. How it is done:
as §1

The target of test [3] is T3, bovine serum albumin (bovine, UniProt P02769 25-607).
T3 construct: Control protein; also called BSA
The test is described as above. How it is done:
as §1

Test [4] addresses T4, polyclonal human IgG antibody (serum-derived) (human).
T4 construct: also called hIgG
Description: SPR (BIAcore2000, 25 C), biotinylated peptide on SA chip, human IgG as analyte (41 to 660 nM). How it is done: SPR analysis was carried out using BIAcore2000 (BIAcore) at 25° C. Necessary reagents and sensor chips were purchased from BIAcore and then used. […] The amount of each peptide to be immobilized was adjusted so that the RU (response unit) ranged from 1500 to 2000. […] Binding reaction between human IgG and the peptides was measured. Thereafter, washing with running buffer (HBS-T) was conducted and then dissociation reaction was measured. For washing/elution of bound analytes from the sensor chips, 0.2 M glycine-HCl buffer (pH 2.7) was used. Binding parameters were analyzed using BIA evaluation Version 3.2 software.
In general terms: In SPR one partner is held on a chip, and binding of the other changes the refractive index at the surface.

For test [5], the target named is T5, anti-HER2 human antibody (Herceptin), acid-treated.
T5 construct: Same antibody as m38 after acid treatment and neutralisation; also called acid-treated anti-HER2 human IgG; acid-denatured anti-HER2 human IgG
Briefly: SPR, peptides on sensor chips, antibody 250 nM; acid treatment pH 2.7, 20 C, 10 min; reference Fc-III peptide. How it is done: (§2) For this SPR analysis, human IgG samples were prepared via acid treatment under various conditions as described below and then tested. […] Subsequently, 30 μl (or 20 μl for a sample to which glycine-HCl with pH 2.7 had been added) of 1 M Tris-HCl (pH 8.7) was added to each solution for neutralization.

For test [6], the target named is T5, anti-HER2 human antibody (Herceptin), …. Description: SPR, peptides on sensor chips, antibody 250 nM; acid treatment pH 2.7, 30 C, 10 min; reference Fc-III peptide. On the procedure: as §2
Test [7] has the same target. Briefly: SPR, peptides on sensor chips, antibody 250 nM; acid treatment pH 2.7, 40 C, 10 min; reference Fc-III peptide. On the procedure:
as §2

For test [8] the target is unchanged. Briefly: SPR, peptides on sensor chips, antibody 250 nM; acid treatment pH 2.1, 40 C, 10 min; reference Fc-III peptide. On the procedure:
as §2

For test [9] the target is unchanged. Briefly: SPR, peptides on sensor chips, antibody 250 nM; acid treatment pH 2.1, 20 C, 10 min; reference Fc-III peptide. How it is done: as §2

T3 sequence (P02769 25-607 limits assumed): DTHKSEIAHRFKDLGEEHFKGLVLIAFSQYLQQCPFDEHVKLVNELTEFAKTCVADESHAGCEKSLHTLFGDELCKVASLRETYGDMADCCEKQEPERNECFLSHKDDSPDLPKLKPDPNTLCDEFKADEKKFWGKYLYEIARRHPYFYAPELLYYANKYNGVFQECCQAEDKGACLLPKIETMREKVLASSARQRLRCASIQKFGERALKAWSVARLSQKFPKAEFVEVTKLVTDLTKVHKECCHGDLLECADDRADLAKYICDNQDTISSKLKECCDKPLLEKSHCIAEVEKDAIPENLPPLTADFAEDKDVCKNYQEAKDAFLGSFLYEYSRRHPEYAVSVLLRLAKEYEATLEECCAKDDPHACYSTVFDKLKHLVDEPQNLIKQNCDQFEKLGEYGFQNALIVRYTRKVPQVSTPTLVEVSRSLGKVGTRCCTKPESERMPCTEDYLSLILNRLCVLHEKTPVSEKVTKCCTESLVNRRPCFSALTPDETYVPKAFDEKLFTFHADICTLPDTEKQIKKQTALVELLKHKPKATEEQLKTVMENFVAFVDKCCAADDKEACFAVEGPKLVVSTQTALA
T2 sequence (P02787 20-698 limits assumed): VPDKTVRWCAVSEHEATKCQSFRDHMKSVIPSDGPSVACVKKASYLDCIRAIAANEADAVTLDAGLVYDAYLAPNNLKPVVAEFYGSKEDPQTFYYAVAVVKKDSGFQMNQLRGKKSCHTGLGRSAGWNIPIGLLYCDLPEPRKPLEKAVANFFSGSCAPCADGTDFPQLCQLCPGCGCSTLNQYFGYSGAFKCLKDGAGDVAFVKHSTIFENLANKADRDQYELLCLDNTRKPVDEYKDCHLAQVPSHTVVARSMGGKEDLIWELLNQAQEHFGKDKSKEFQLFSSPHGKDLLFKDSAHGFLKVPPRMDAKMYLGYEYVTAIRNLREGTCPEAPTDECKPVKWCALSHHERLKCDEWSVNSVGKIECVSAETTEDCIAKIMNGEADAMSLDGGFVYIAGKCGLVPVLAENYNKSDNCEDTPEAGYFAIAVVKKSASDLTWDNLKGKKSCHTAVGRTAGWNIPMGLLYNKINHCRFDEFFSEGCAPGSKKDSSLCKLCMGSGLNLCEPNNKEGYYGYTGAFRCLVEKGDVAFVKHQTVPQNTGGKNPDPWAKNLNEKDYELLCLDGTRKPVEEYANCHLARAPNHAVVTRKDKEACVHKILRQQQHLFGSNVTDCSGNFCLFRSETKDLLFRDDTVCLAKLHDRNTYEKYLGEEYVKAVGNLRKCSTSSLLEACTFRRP

B1: synthetic peptide IMGpep-1CS (peptide)
peptide: {Biotin-LC}-GSGYWRSEWGLSG
notes: Both Cys of IMGpep-1 replaced by Ser; linear control peptide; also called biotinylated IMGpep-1CS
As to B1, the binding result in test [1], in [2] and in test [3] was “no binding” each time.
Regarding {Biotin-LC}-GCGYWRSEWGLCG (disulfide 2-12 (inferred), also called biotinylated IMGpep-1) [synthetic peptide IMGpep-1], in test [4], the Kd turned out to be 17 nM, the koff was 0.00034 s⁻¹ and the kon stood at 20000 M⁻¹ s⁻¹. In test [2], the binding result is listed as “no binding”. For the same molecule, the binding result in test [3] was “no binding”.
In turn, {Biotin-LC}-GCGYWRSQWGLCG (disulfide 2-12 (inferred), also called biotinylated IMGpep-1E6Q) [synthetic peptide IMGpep-1E6Q] returned a Kd in test [4] of 21 nM. In test [4], this molecule displayed a koff of 0.00031 s⁻¹. In test [4], this molecule displayed a kon of 15000 M⁻¹ s⁻¹. Further, the binding result in test [1], in test [2] and in test [3] was “no binding” each time.
In test [4], {Biotin-LC}-GCTGYWPKAWGLCG (disulfide 2-13 (inferred), also called biotinylated IMGpep-4) [synthetic peptide IMGpep-4] returned a Kd of 28 nM, a koff of 0.00041 s⁻¹ and a kon of 14000 M⁻¹ s⁻¹. Moreover, in test [1], the binding result is “no binding”. Also, the binding result in test [2] was “no binding”. In addition, in test [3], the binding result is “no binding”.
Consider GCTGYWPRAWGLCG (disulfide 2-13 (inferred); not fully specified (N-terminus), also called biotinylated IMGpep-4K6R) [synthetic peptide IMGpep-4K6R], for which the “generation rate of acid-denatured IgG (ratio a/b of the SPR response on the IMGpep-4K6R chip to that on the Fc-III chip)” value in [5] was around 5%; in test [6], 9.7%; in test [7], 40%; in [8], around 40%; in test [9] it was 7.8%. In test [4], binding was characterised by a dissociation constant (Kd) of 24 nM. The binding result in [1], in [2] and in [3] was “no binding” throughout.
